Assay [1] has as its target T1, K28A_HO BMC-H 5815ggsSZ5-HA.
T1 construct: Self-assembles into higher-order sheets in E. coli; also called K28A 5815-Synthetic Zipper5 construct; K28AHO BMC-H-SZ5
T1 chain: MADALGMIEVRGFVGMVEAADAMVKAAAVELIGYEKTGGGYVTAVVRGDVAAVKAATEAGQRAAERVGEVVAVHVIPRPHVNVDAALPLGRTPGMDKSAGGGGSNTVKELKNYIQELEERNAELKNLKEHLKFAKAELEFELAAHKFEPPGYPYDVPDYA
Put plainly: live-cell fluorescence time course in E. coli. Here is the method:
E. coli BL21 ArcticExpress (DE3) competent cells (Agilent) were used for cellular expression studies. Competent cells were transformed with constructs containing the gene(s) of interest and plated on LB agar plates with the appropriate antibiotic(s) to provide selection. Individual colonies were picked into 5 mL LB cultures with the appropriate antibiotics(s) and incubated at 30° C., with a rotational stirring of 250 RPM. These overnight cultures were inoculated 1:100 into fresh liquid cultures with conditions dependent upon the experimental plan. For TEM analysis, cells were inoculated in 50 mL LB, grown until ˜OD₆₀₀ 0.8, induced with 100 μM IPTG, and incubated for an additional 6 hours, before 2 mL of the parent culture was fixed overnight at 4° C. Cells used to purify protein were cultured in a similar manner, the whole culture was pelleted, and cell pellets were stored at −20° C. for subsequent protein isolation. Cultures analyzed via light microscopy were inoculated into 1 mL LB or SOB media in culture tubes and incubated the indicated amount of time before imaging. Appropriate inducer(s) (IPTG or aTc) were added as indicated for each experimental design.
The dynamics of scaffold nucleation and maturation was then visualized over time in live cells. […]

For assay [2] the target is unchanged. Kind of assay: fluorescence co-localization in E. coli, deconvolved widefield (FIG. 2C).
For assay [3] the target is unchanged. Kind of assay: fluorescence co-localization in E. coli, 100 µM or 500 µM IPTG (FIG. 2I).
Assay [4] shares this target. Kind of assay: fluorescence microscopy of E. coli co-expressing both, 100 µM or 500 µM IPTG (FIG. 2I).

B1: STREP-mNeonGreen (other, not shown: small tags and cut ends)
chain: MVSKGEEDNMASLPATHELHIFGSINGVDFDMVGQGTGNPNDGYEELNLKSTKGDLQFSPWILVPHIGYGFHQYLPYPDGMSPFQAAMVDGSGYQVHRTMQFEDGASLTVNYRYTYEGSHIKGEAQVKGTGFPADGPVMTNSLTAADWCRSKKTYPNDKTIISTFKWSYTTGNGKRYRSTARTTYTFAKPMAANYLKNQPMYVFRKTELKHSKTELNFKEWQKAFTDVMGMDELYK
notes: Fluorescent cargo without an SZ6 domain; also called untagged cargo; untagged cargo construct PLacO::mNeonGreen
For B1, the binding result in assay [1] is “no binding”.

B2: Synthetic Zipper6 LINKER mNeonGreen StrepII Tag construct (designed binder)
chain: MQKVAQLKNRVAYKLKENAKLENIVARLENDNANLEKDIANLEKDIANLERDVARGSGGGSGGGSMVSKGEEDNMASLPATHELHIFGSINGVDFDMVGQGTGNPNDGYEELNLKSTKGDLQFSPWILVPHIGYGFHQYLPYPDGMSPFQAAMVDGSGYQVHRTMQFEDGASLTVNYRYTYEGSHIKGEAQVKGTGFPADGPVMTNSLTAADWCRSKKTYPNDKTIISTFKWSYTTGNGKRYRSTARTTYTFAKPMAANYLKNQPMYVFRKTELKHSKTELNFKEWQKAFTDVMGMDELYKSAWSHPQFEK
notes: also called SZ6-ggs-mNeonGreen; SZ6-mNeonGreen
For the molecule B2, the binding result in assay [2] is “binds”.

B3: Synthetic Zipper6 LINKER mScarlet-I StrepII Tag construct (designed binder)
chain: MQKVAQLKNRVAYKLKENAKLENIVARLENDNANLEKDIANLEKDIANLERDVARGSGGGSGGGSMVSKGEAVIKEFMRFKVHMEGSMNGHEFEIEGEGEGRPYEGTQTAKLKVTKGGPLPFSWDILSPQFMYGSRAFIKHPADIPDYYKQSFPEGFKWERVMNFEDGGAVTVTQDTSLEDGTLIYKVKLRGTNFPPDGPVMQKKTMGWEASTERLYPEDGVLKGDIKMALRLKDGGRYLADFKTTYKAKKPVQMPGAYNVDRKLDITSHNEDYTVVEQYERSEGRHSTGGMDELYKSAWSHPQFEK
notes: also called SZ6-ggs-mScarlet-I; SZ6-mScarlet-I
For B3, in assay [3], the binding result is on record as “binds”.

B4: STREP-mScarlet-I (other)
chain: MVSKGEAVIKEFMRFKVHMEGSMNGHEFEIEGEGEGRPYEGTQTAKLKVTKGGPLPFSWDILSPQFMYGSRAFIKHPADIPDYYKQSFPEGFKWERVMNFEDGGAVTVTQDTSLEDGTLIYKVKLRGTNFPPDGPVMQKKTMGWEASTERLYPEDGVLKGDIKMALRLKDGGRYLADFKTTYKAKKPVQMPGAYNVDRKLDITSHNEDYTVVEQYERSEGRHSTGGMDELYK
notes: Fluorescent cargo without an SZ6 domain; also called untagged cargo
For B4, the binding result in assay [4] is “no binding”.

The values above are taken from patent US20220162268A1 (BOARD OF TRUSTEES OF MICHIGAN STATE UNIVERSITY, published 2022).
